From publication doi:10.1101/815886
“And” between values parts separate entries of the source, which are not always exact repeats. Identical values can stand only once. Like-named read-outs stand apart in the source and are kept apart here.

Legend:
Conditions in all cases: remark: other sources report otherwise
[1] = biological target: T1, human CTC1-STN1-TEN1 (CST) heterotrimeric complex (human), Q2NKJ3; assay: negative-stain EM single-particle analysis
T1 chain 1: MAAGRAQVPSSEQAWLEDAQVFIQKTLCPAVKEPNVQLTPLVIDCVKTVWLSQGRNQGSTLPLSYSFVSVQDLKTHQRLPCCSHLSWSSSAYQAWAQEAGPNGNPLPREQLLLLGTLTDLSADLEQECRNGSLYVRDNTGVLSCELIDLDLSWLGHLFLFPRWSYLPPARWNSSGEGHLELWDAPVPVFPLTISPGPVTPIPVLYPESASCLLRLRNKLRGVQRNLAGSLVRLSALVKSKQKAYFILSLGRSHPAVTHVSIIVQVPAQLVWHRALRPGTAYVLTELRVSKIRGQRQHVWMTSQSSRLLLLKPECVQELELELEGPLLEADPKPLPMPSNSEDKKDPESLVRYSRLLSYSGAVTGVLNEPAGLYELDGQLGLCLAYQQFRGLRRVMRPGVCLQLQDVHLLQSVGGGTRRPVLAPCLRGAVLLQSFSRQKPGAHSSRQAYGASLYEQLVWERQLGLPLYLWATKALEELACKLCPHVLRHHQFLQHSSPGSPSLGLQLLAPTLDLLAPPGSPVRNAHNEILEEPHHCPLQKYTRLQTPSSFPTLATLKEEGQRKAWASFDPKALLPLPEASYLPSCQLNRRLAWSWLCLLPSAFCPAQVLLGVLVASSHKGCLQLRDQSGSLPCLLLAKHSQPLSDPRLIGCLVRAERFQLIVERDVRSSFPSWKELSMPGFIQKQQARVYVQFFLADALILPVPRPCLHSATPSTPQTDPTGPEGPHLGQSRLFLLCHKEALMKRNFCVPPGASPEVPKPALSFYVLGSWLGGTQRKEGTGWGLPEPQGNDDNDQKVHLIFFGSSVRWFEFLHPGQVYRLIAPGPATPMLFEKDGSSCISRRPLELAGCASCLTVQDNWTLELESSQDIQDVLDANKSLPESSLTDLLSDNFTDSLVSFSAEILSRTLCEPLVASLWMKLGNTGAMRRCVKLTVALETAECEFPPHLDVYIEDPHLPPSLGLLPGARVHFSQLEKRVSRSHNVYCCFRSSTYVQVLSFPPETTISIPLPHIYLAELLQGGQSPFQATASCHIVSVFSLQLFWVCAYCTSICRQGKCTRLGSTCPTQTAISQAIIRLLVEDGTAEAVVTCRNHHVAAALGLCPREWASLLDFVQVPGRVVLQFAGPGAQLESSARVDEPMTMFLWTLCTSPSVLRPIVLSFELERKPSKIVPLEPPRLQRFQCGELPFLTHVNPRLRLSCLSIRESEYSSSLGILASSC
T1 chain 2: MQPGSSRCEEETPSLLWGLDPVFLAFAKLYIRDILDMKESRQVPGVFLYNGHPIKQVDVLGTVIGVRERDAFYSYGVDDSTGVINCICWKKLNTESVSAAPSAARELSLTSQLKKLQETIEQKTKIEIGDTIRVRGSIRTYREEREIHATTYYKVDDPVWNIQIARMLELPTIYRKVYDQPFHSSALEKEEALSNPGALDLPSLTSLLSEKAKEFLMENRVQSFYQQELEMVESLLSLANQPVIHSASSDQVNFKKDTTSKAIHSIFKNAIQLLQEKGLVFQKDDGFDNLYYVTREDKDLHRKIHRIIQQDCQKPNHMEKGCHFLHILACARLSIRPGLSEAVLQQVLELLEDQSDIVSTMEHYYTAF
T1 chain 3: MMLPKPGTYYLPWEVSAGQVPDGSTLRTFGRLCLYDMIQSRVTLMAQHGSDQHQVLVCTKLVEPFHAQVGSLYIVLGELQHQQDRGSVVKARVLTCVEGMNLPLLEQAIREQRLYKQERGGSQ

[2] = biological target: T1, human CTC1-STN1-TEN1 (CST) …; assay: negative-stain EM single-particle analysis
[3] = biological target: T1, human CTC1-STN1-TEN1 (CST) …
[4] = biological target: T1, human CTC1-STN1-TEN1 (CST) …; assay: cryo-EM structure

stoichiometry N [1]: 10 | stoichiometry N [2]: 4 and 2 | stoichiometry N [3]: 10 | stoichiometry N [4]: 10
B1: human CTC1-STN1-TEN1 (CST) heterotrimeric complex, Q2NKJ3;Q9H668;Q86WV5 (complex)
chain 1: T1 chain 1
chain 2: T1 chain 2
chain 3: T1 chain 3
